Reference: PMC8531446, “Light-triggered and phosphorylation-dependent 14-3-3 association with NON-PHOTOTROPIC HYPOCOTYL 3 is required for hypocotyl phototropism” (Nature Communications, 2021)

How the values were obtained:
[1] = molecular target: T1, GFP:NPH3 from N. benthamiana (Arabidopsis thaliana, UniProt Q9FMF5 1-746, phosphoserine at 744 upon blue light irradiation only (α-pS744 antibody)); assay: far-Western, overlay or dot blot; anti-GFP immunoprecipitates from blue-light-treated N. benthamiana leaves (10 μmol m^-2 s^-1, 40 min) or Arabidopsis nph3-7 seedlings (1 μmol m^-2 s^-1) separated by SDS-PAGE, on nitrocellulose; overlaid with RGS(His)6-14-3-3 omega at 20 μg ml^-1 in 50 mM MOPS pH 6.5, 20% glycerol, 5 mM MgCl2, 2 mM DTT, overnight at 4 °C; anti-RGS(His)6 detection; details: both partners purified
T1 construct: NPH3, Arabidopsis thaliana; cloned into pH7WGF2; S746 is the last residue; source: N. benthamiana leaves, transiently transformed (35S promoter), anti-GFP immunoprecipitate (GFP-Trap beads); not shown: GFP, N-terminal, kept
T1 sequence (looked up): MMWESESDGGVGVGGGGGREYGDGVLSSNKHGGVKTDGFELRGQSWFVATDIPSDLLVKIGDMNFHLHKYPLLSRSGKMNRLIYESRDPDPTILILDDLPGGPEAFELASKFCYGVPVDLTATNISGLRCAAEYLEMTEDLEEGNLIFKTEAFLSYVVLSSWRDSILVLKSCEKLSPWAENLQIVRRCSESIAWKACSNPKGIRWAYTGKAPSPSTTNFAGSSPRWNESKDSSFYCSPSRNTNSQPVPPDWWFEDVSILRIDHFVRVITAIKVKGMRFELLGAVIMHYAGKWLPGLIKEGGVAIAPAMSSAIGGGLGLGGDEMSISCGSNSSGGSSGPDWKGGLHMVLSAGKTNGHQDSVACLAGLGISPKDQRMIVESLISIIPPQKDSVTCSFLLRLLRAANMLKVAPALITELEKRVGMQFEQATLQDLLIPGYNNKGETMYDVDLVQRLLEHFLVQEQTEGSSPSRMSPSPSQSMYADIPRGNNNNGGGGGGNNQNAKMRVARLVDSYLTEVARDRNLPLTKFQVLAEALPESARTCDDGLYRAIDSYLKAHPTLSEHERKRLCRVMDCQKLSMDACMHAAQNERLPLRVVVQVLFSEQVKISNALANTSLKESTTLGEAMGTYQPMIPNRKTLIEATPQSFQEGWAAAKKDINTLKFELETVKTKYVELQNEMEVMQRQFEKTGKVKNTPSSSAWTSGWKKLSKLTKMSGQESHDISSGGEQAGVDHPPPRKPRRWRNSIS

[2] = molecular target: T2, GFP:NPH3 from transgenic Arabidopsis nph3-7 (Arabidopsis thaliana, UniProt Q9FMF5 1-746, phosphoserine at 744 upon blue light irradiation (α-pS744 antibody); dephosphorylated on prolonged irradiation or re-transfer to darkness); assay: as above; details: both partners purified
T2 construct: NPH3, Arabidopsis thaliana; cloned into pH7WGF2; S746 is the last residue; source: Arabidopsis nph3-7 seedlings, stably expressed (35S promoter), anti-GFP immunoprecipitate (GFP-Trap beads); not shown: GFP, N-terminal, kept
T2 sequence (looked up): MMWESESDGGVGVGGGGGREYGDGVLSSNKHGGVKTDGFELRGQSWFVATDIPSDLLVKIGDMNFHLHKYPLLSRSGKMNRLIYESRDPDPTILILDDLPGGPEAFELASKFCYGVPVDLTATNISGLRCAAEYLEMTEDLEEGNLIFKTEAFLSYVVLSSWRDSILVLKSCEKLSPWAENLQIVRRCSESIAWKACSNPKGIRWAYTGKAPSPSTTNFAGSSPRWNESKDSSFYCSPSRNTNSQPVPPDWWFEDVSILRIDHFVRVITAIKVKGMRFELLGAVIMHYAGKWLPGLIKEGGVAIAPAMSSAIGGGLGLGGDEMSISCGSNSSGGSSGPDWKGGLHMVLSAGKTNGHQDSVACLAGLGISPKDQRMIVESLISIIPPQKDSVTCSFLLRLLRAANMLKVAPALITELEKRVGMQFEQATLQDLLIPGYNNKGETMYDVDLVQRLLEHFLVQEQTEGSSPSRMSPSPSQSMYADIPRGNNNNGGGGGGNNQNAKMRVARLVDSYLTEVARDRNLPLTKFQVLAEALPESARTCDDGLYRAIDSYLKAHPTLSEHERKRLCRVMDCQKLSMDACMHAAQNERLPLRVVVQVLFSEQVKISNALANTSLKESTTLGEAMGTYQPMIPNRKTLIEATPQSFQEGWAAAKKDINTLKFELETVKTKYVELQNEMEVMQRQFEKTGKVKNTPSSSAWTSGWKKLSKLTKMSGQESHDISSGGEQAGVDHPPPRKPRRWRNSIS

B1: RGS(His)6-tagged Arabidopsis 14-3-3 isoform omega (natural protein, UniProt Q01525 1-259, looked up)
chain: MASGREEFVYMAKLAEQAERYEEMVEFMEKVSAAVDGDELTVEERNLLSVAYKNVIGARRASWRIISSIEQKEESRGNDDHVTAIREYRSKIETELSGICDGILKLLDSRLIPAAASGDSKVFYLKMKGDYHRYLAEFKTGQERKDAAEHTLAAYKSAQDIANAELAPTHPIRLGLALNFSVFYYEILNSPDRACNLAKQAFDEAIAELDTLGEESYKDSTLIMQLLRDNLTLWTSDMQDDAADEIKEAAAPKPTEEQQ
notes: 14-3-3 isoform omega, Arabidopsis; cDNA in the expression vector pQE-30; also called purified recombinant 14-3-3 proteins; RGS(His)6-tagged 14-3-3; source: E. coli M15, purified (Ni2+-NTA agarose, native conditions)
binding result [1]: binds
binding result [2]: binds
